# Results from patent publication US20250327097A1, “ORGANISMS PRODUCING LESS CROTONIC ACID” (Global Bioenergies, priority 2021, published 2025).
# Substitutions are numbered along the chain they refer to. Names may count otherwise.
# B1: E224P-I283T-N285P-N287T-Q290E-S322T-N388M-S389H-K394R-C430A-i430aG-L432F-L434W-S436N-I453L-dG462 (protein)
# chain: MFLKSLREQINLLKRQGDLRIINRPVDSYLEAAAIIRRSTETKAPVPLMTNIKGYPGCSIVGGLAALSSNPEYPLSRVAMSLGLSTTASAQSIVQYLIDGLKKTPYLPVEIDSNSAPCKQNILRGEDASLAHFPIPQVHQHDGNRYVNTWGVFIVESPDGQWCNWSIQRVQYLNDRQMIALVFPSQHISDIWEEWVKIGKPMPYALVQGCEPIVPYIAGLPLLPRNVNEAEYIGALYGKGIEVVKCETHDLRVPASSEVVIEGYFAITREGVEGPFGEFAGYTPPETSLEPILSITAISWQDDPIWPVVAEGKPVDEYHTCTGIGDAAAIQNVLLTANLPVSFVWVPLYSACHLMIVSINRHWRQTHPDLTSEQLTKKVGDVIHQTRMHIKLPRIVVLDDDVDPADTESLLWALATRIHPERKRYFYESAIFPWLNCYSEEERHNRKGKRVILDALLPENHGAISSFDYAYPDDIKQRVLMHWETDFSHD
# B2: G380V-K391L-L432W-L434M (protein)
# chain: MFLKSLREQINLLKRQGDLRIINRPVDSYLEAAAIIRRSTETKAPVPLMTNIKGYPGCSIVGGLAALSSNPEYPLSRVAMSLGLSTTASAQSIVQYLIDGLKKTPYLPVEIDSNSAPCKQNILRGEDASLAHFPIPQVHQHDGNRYVNTWGVFIVESPDGQWCNWSIQRVQYLNDRQMIALVFPSQHISDIWEEWVKIGKPMPYALVQGCEPIVPYIAGLPLLERNVNEAEYIGALYGKGIEVVKCETHDLRVPASSEVVIEGYFAITREGVEGPFGEFAGYIPNENSLQPILSITAISWQDDPIWPVVAEGKPVDEYHTCSGIGDAAAIQNVLLTANLPVSFVWVPLYSACHLMIVSINRHWRQTHPDLTSEQLTKKVVDVIHQTRNSILLPKIVVLDDDVDPADTESLLWALATRIHPERKRYFYESCIWPMLSCYSEEERHNRKGKRVIIDALLPENHGAISSFDYAYPDDIKQRVLMHWETDFSHD
# B3: S39G-V272R-I283T-P284D-i284aP-N287P-S322T-N388M-E421V-F426L-E428T-C430N-L432F-L434W-S436N-G448E-H461T-G462R-i462aA-A463T (protein)
# chain: MFLKSLREQINLLKRQGDLRIINRPVDSYLEAAAIIRRGTETKAPVPLMTNIKGYPGCSIVGGLAALSSNPEYPLSRVAMSLGLSTTASAQSIVQYLIDGLKKTPYLPVEIDSNSAPCKQNILRGEDASLAHFPIPQVHQHDGNRYVNTWGVFIVESPDGQWCNWSIQRVQYLNDRQMIALVFPSQHISDIWEEWVKIGKPMPYALVQGCEPIVPYIAGLPLLERNVNEAEYIGALYGKGIEVVKCETHDLRVPASSEVVIEGYFAITREGREGPFGEFAGYTDNEPSLQPILSITAISWQDDPIWPVVAEGKPVDEYHTCTGIGDAAAIQNVLLTANLPVSFVWVPLYSACHLMIVSINRHWRQTHPDLTSEQLTKKVGDVIHQTRMSIKLPKIVVLDDDVDPADTESLLWALATRIHPVRKRYLYTSNIFPWLNCYSEEERHNRKEKRVIIDALLPENTRTISSFDYAYPDDIKQRVLMHWETDFSHD
# B4: V272R-I283T-P284D-i284aP-N287P-S322T-N388M-E421V-E428T-C430N-L432F-L434W-S436N-K447I-G448E-H461T-G462R-i462aA-A463T (protein)
# chain: B3 chain with G39S, L426F, K447I
# Tested on: 3-methylcrotonic acid
# Type: biochemical, Yersinia frederiksenii
# Parameters: key: “+” representing a low increase in activity; “++++” representing a high increase in activity
row,Molecule,Activity relative to WT
1,B1,++++
2,B2,+
3,B3,++++
4,B4,++++
